Assay results: article PMC2914828

Biological target: alternative complex III (ACIII) subunit s5 (Chloroflexus aurantiacus strain J-10-fl (endogenous))
Test: cross-linking

stoichiometry N: 2
Substance: alternative complex III (ACIII) subunit s5 (natural protein)
